Results published in the supplement of paper PMC11246515.
± gives the standard deviation of the averaged measurements.

Assay: total protein half-life in vivo (active degradation + dilution); higher = more stable protein
[1] = E. coli NCM3722 delta-clpP delta-lon delta-hslV, growth: N-lim chemostat, doubling time 6 h
[2] = wild type E. coli NCM3722, growth: C-lim chemostat, doubling time 6 h
[3] = wild type E. coli NCM3722, growth: C-lim chemostat, doubling time 12 h
[4] = E. coli NCM3722 delta-clpP, growth: N-lim chemostat, doubling time 6 h
[5] = E. coli NCM3722 delta-hslV, growth: N-lim chemostat, doubling time 6 h
[6] = E. coli NCM3722 delta-lon, growth: N-lim chemostat, doubling time 6 h
[7] = E. coli NCM3722 delta-smpB, growth: N-lim chemostat, doubling time 6 h
[8] = wild type E. coli NCM3722, growth: C-lim chemostat, doubling time 3 h
[9] = wild type E. coli NCM3722, growth: N-lim chemostat, doubling time 6 h
[10] = wild type E. coli NCM3722, growth: N-lim chemostat, doubling time 12 h
[11] = wild type E. coli NCM3722, growth: P-lim chemostat, doubling time 6 h
[12] = wild type E. coli NCM3722, growth: P-lim chemostat, doubling time 12 h

MKWFNTLSHNRWLEQETDRIFDFGKNSVVPTGFGWLGNKGQIKEEMGTHLWITARMLHVYSVAAAMGRPGAYSLVDHGIKAMNGALRDKKYGGWYACVNDEGVVDASKQGYQHFFALLGAASAVTTGHPEARKLLDYTIEIIEKYFWSEEEQMCLESWDEAFSKTEEYRGGNANMHAVEAFLIVYDVTHDKKWLDRAIRVASVIIHDVARNNHYRVNEHFDTQWNPLPDYNKDNPAHRFRAFGGTPGHWIEWGRLMLHIHAALEARCEQPPAWLLEDAKGLFNATVRDAWAPDGADGIVYTVDWEGKPVVRERVRWPIVEAMGTAYALYTVTGDRQYETWYQTWWEYCIKYLMDYENGSWWQELDADNKVTTKVWDGKQDIYHLLHCLVIPRIPLAPGMAPAVAAGLLDINAK
total protein half-life in vivo [1]: 7.17 h
total protein half-life in vivo [2]: 4.37 h
total protein half-life in vivo [3]: 5.87 h

MKYDLIIIGSGSVGAAAGYYATRAGLNVLMTDAHMPPHQHGSHHGDTRLIRHAYGEGEKYVPLVLRAQTLWDELSRHNEEDPIFVRSGVINLGPADSTFLANVAHSAEQWQLNVEKLDAQGIMARWPEIRVPDNYIGLFETDSGFLRSELAIKTWIQLAKEAGCAQLFNCPVTAIRHDDDGVTIETADGEYQAKKAIVCAGTWVKDLLPELPVQPVRKVFAWYQADGRYSVKNKFPAFTGELPNGDQYYGFPAENDALKIGKHNGGQVIHSADERVPFAEVASDGSEAFPFLRNVLPGIGCCLYGAACTYDNSPDEDFIIDTLPGHDNTLLITGLSGHGFKFASVLGEIAADFAQDKKSDFDLTPFRLSRFQ
total protein half-life in vivo [1]: 4.35 ± 1.2 h
total protein half-life in vivo [4]: 3.046 ± 0.022 h
total protein half-life in vivo [5]: 3.23 ± 0.11 h
total protein half-life in vivo [6]: 3.34 ± 0.26 h
total protein half-life in vivo [7]: 3.1 ± 0.046 h
total protein half-life in vivo [8]: 2.99 ± 0.11 h
total protein half-life in vivo [2]: 5.49 ± 0.24 h
total protein half-life in vivo [3]: 6.92 ± 1.5 h
total protein half-life in vivo [9]: 3.11 ± 0.23 h
total protein half-life in vivo [10]: 5.46 ± 0.065 h
total protein half-life in vivo [11]: 5.55 ± 0.089 h
total protein half-life in vivo [12]: 10.5 ± 0.16 h

MKYLASFRTTLKASRYMFRALALVLWLLIAFSSVFYIVNALHQRESEIRQEFNLSSDQAQRFIQRTSDVMKELKYIAENRLSAENGVLSPRGRETQADVPAFEPLFADSDCSAMSNTWRGSLESLAWFMRYWRDNFSAAYDLNRVFLIGSDNLCMANFGLRDMPVERDTALKALHERINKYRNAPQDDSGSNLYWISEGPRPGVGYFYALTPVYLANRLQALLGVEQTIRMENFFLPGTLPMGVTILDENGHTLISLTGPESKIKGDPRWMQERSWFGYTEGFRELVLKKNLPPSSLSIVYSVPVDKVLERIRMLILNAILLNVLAGAALFTLARMYERRIFIPAESDALRLEEHEQFNRKIVASAPVGICILRTADGVNILSNELAHTYLNMLTHEDRQRLTQIICGQQVNFVDVLTSNNTNLQISFVHSRYRNENVAICVLVDVSSRVKMEESLQEMAQAAEQASQSKSMFLATVSHELRTPLYGIIGNLDLLQTKELPKGVDRLVTAMNNSSSLLLKIISDILDFSKIESEQLKIEPREFSPREVMNHITANYLPLVVRKQLGLYCFIEPDVPVALNGDPMRLQQVISNLLSNAIKFTDTGCIVLHVRADGDYLSIRVRDTGVGIPAKEVVRLFDPFFQVGTGVQRNFQGTGLGLAICEKLISMMDGDISVDSEPGMGSQFTVRIPLYGAQYPQKKGVEGLSGKRCWLAVRNASLCQFLETSLQRSGIVVTTYEGQEPTPEDVLITDEVVSKKWQGRAVVTFCRRHIGIPLEKAPGEWVHSVAAPHELPALLARIYLIEMESDDPANALPSTDKAVSDNDDMMILVVDDHPINRRLLADQLGSLGYQCKTANDGVDALNVLSKNHIDIVLSDVNMPNMDGYRLTQRIRQLGLTLPVIGVTANALAEEKQRCLESGMDSCLSKPVTLDVIKQTLTLYAERVRKSRDS [P0DMC5]
total protein half-life in vivo [4]: 6.287 ± 0.034 h
total protein half-life in vivo [5]: 5.76 ± 0.49 h
total protein half-life in vivo [6]: 6.22 ± 0.067 h
total protein half-life in vivo [7]: 5.88 ± 0.48 h
total protein half-life in vivo [8]: 2.98 ± 0.21 h
total protein half-life in vivo [2]: 6.119 ± 0.024 h
total protein half-life in vivo [3]: 13.1 ± 2.3 h
total protein half-life in vivo [9]: 6.01 ± 0.37 h
total protein half-life in vivo [10]: 11.6 ± 0.28 h
total protein half-life in vivo [11]: 6.1 ± 0.12 h
total protein half-life in vivo [12]: 11.8 ± 0.82 h

MKYVDGFVVAVPADKKDAYREMAAKAAPLFKEFGALRIVECWASDVPDGKVTDFRMAVKAEENEEVVFSWIEYPSKEVRDAANQKMMSDPRMKEFGESMPFDGKRMIYGGFESIIDE [P0AAQ6]
total protein half-life in vivo [1]: 4.294 ± 0.022 h
total protein half-life in vivo [4]: 2.69 ± 0.41 h
total protein half-life in vivo [5]: 3.26 ± 1.4 h
total protein half-life in vivo [6]: 3.82 ± 0.1 h
total protein half-life in vivo [7]: 1.51 ± 0.073 h
total protein half-life in vivo [2]: 2.63 ± 0.71 h
total protein half-life in vivo [3]: 2.54 ± 0.65 h
total protein half-life in vivo [9]: 2.14 h
total protein half-life in vivo [10]: 2.62 ± 0.04 h
total protein half-life in vivo [11]: 3.082 ± 0.03 h
total protein half-life in vivo [12]: 6.13 ± 0.85 h

MLAFCRSSLKSKKYIIILLALAAIAGLGTHAAWSSNGLPRIDNKTLARLAQQHPVVVLFRHAERCDRSTNQCLSDKTGITVKGTQDARELGNAFSADIPDFDLYSSNTVRTIQSATWFSAGKKLTVDKRLLQCGNEIYSAIKDLQSKAPDKNIVIFTHNHCLTYIAKDKRDATFKPDYLDGLVMHVEKGKVYLDGEFVNH
total protein half-life in vivo [1]: > 8 h
total protein half-life in vivo [4]: 5.63 h
total protein half-life in vivo [5]: 4.99 ± 1.1 h
total protein half-life in vivo [8]: 3 ± 1.2 h
total protein half-life in vivo [2]: 4.93 ± 1.4 h
total protein half-life in vivo [9]: 4.21 ± 2.1 h
total protein half-life in vivo [11]: 5.09 ± 0.5 h

MLAKRIIPCLDVRDGQVVKGVQFRNHEIIGDIVPLAKRYAEEGADELVFYDITASSDGRVVDKSWVSRVAEVIDIPFCVAGGIKSLEDAAKILSFGADKISINSPALADPTLITRLADRFGVQCIVVGIDTWYDAETGKYHVNQYTGDESRTRVTQWETLDWVQEVQKRGAGEIVLNMMNQDGVRNGYDLEQLKKVREVCHVPLIASGGAGTMEHFLEAFRDADVDGALAASVFHKQIINIGELKAYLATQGVEIRIC
total protein half-life in vivo [1]: 4.98 ± 0.68 h
total protein half-life in vivo [4]: 4.15 ± 0.38 h
total protein half-life in vivo [5]: 4.45 ± 0.13 h
total protein half-life in vivo [6]: 4.83 ± 0.12 h
total protein half-life in vivo [7]: 4.317 ± 0.0095 h
total protein half-life in vivo [8]: 2.97 ± 0.2 h
total protein half-life in vivo [2]: 5.53 ± 0.17 h
total protein half-life in vivo [3]: 9.44 ± 0.28 h
total protein half-life in vivo [9]: 4.34 ± 0.0084 h
total protein half-life in vivo [10]: 7.26 ± 0.56 h
total protein half-life in vivo [11]: 5.64 ± 0.13 h
total protein half-life in vivo [12]: 11.6 ± 0.42 h

MLAQLTISNFAIVRELEIDFHSGMTVITGETGAGKSIAIDALGLCLGGRAEADMVRTGAARADLCARFSLKDTPAALRWLEENQLEDGHECLLRRVISSDGRSRGFINGTAVPLSQLRELGQLLIQIHGQHAHQLLTKPEHQKFLLDGYANETSLLQEMTARYQLWHQSCRDLAHHQQLSQERAARAELLQYQLKELNEFNPQPGEFEQIDEEYKRLANSGQLLTTSQNALALMADGEDANLQSQLYTAKQLVSELIGMDSKLSGVLDMLEEATIQIAEASDELRHYCDRLDLDPNRLFELEQRISKQISLARKHHVSPEALPQYYQSLLEEQQQLDDQADSQETLALAVTKHHQQALEIARALHQQRQQYAEELAQLITDSMHALSMPHGQFTIDVKFDEHHLGADGADRIEFRVTTNPGQPMQPIAKVASGGELSRIALAIQVITARKMETPALIFDEVDVGISGPTAAVVGKLLRQLGESTQVMCVTHLPQVAGCGHQHYFVSKETDGAMTETHMQSLNKKARLQELARLLGGSEVTRNTLANAKELLAA
total protein half-life in vivo [1]: 5.03 ± 0.093 h
total protein half-life in vivo [4]: 3.53 ± 0.12 h
total protein half-life in vivo [12]: 2.48 h
